Test results published in publication PMC4414297, “An epitope tag alters phosphoglycerate dehydrogenase structure and impairs ability to support cell proliferation” (Cancer & Metabolism, 2015).

Target: the molecule itself
Assay: negative-stain electron microscopy; 12 ng/ul His-PHGDH or 15 ng/ul untagged PHGDH with 0.5 mM NADH, 2% uranyl acetate; reference-free alignment, class averages, particle areas compared

B1: recombinant untagged PHGDH (D-3-phosphoglycerate dehydrogenase) (enzyme, human, UniProt O43175 1-533, looked up)
chain: MAFANLRKVLISDSLDPCCRKILQDGGLQVVEKQNLSKEELIAELQDCEGLIVRSATKVTADVINAAEKLQVVGRAGTGVDNVDLEAATRKGILVMNTPNGNSLSAAELTCGMIMCLARQIPQATASMKDGKWERKKFMGTELNGKTLGILGLGRIGREVATRMQSFGMKTIGYDPIISPEVSASFGVQQLPLEEIWPLCDFITVHTPLLPSTTGLLNDNTFAQCKKGVRVVNCARGGIVDEGALLRALQSGQCAGAALDVFTEEPPRDRALVDHENVISCPHLGASTKEAQSRCGEEIAVQFVDMVKGKSLTGVVNAQALTSAFSPHTKPWIGLAEALGTLMRAWAGSPKGTIQVITQGTSLKNAGNCLSPAVIVGLLKEASKQADVNLVNAKLLVKEAGLNVTTSHSPAAPGEQGFGECLLAVALAGAPYQAVGLVQGTTPVLQGLNGAVFRPEVPLRRDLPLLLFRTQTSDPAMLPTMIGLLAEAGVRLLSYQTSLVSDGETWHVMGISSLLPSLEAWKQHVTEAFQFHF
notes: D-3-phosphoglycerate dehydrogenase (PHGDH), human, expressed from pET28a PHGDH without a tag; Oligomer size is left open (dimer, trimer, or tetramer); also called rPHGDH; source: E. coli BL21, purified (Cibacron Blue F3GA, MonoQ, Sephacryl S-200)
binding result: binds
